Laboratory results published in publication doi:10.1101/2022.02.28.482286 (bioRxiv, 2022).
Values belong to the binder of their own block, whether it stands above or below them.

Experiments:
Assay in all cases: cryo-EM structure
[1] = target: T1, Pol III subunit C128 (S. cerevisiae, UniProt P22276 1-1149)
T1 sequence (looked up): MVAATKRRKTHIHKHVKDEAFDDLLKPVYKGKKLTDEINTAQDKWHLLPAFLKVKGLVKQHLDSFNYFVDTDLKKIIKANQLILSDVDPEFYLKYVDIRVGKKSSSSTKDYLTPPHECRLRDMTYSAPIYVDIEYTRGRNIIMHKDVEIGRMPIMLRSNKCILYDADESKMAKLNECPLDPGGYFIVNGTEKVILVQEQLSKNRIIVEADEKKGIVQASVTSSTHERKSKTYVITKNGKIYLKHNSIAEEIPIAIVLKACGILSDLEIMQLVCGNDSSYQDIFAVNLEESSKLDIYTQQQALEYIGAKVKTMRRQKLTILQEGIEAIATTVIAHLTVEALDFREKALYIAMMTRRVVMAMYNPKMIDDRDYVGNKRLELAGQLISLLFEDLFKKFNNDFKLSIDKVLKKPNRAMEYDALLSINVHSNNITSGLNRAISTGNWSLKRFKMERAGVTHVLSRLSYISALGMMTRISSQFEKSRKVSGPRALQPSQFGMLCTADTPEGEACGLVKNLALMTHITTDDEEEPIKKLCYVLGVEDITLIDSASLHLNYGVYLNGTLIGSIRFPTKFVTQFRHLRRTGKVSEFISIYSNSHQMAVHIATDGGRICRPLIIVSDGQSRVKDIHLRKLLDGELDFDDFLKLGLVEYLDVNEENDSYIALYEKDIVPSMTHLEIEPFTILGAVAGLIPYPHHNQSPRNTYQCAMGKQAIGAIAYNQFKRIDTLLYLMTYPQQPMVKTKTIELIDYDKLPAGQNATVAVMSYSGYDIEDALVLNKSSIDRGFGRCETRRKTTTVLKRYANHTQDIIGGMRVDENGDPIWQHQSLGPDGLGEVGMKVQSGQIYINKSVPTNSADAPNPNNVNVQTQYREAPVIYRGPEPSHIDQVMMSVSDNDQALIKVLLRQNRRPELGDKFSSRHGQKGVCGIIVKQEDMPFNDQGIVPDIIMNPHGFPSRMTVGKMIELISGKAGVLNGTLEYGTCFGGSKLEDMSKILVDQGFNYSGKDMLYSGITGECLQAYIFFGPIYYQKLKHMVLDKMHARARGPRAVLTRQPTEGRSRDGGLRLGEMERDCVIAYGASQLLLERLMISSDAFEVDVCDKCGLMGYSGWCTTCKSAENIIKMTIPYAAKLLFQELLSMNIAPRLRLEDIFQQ

[2] = target: T2, Pol III subunit C53 (S. cerevisiae, UniProt P25441 1-422)
T2 sequence (looked up): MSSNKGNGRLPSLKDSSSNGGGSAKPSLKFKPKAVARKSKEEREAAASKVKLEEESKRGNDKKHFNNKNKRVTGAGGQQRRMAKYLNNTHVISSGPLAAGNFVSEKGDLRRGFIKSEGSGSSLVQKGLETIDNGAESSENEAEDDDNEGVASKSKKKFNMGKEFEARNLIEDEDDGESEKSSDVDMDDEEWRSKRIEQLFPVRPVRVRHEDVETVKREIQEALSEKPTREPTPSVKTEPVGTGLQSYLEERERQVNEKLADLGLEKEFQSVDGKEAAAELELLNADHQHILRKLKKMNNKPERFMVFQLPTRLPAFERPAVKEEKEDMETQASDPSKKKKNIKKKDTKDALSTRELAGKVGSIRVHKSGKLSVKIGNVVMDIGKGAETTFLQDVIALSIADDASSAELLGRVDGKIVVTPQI

[3] = target: T3, Pol III subunit C160 (S. cerevisiae, UniProt P04051 1-1460)
T3 sequence (looked up): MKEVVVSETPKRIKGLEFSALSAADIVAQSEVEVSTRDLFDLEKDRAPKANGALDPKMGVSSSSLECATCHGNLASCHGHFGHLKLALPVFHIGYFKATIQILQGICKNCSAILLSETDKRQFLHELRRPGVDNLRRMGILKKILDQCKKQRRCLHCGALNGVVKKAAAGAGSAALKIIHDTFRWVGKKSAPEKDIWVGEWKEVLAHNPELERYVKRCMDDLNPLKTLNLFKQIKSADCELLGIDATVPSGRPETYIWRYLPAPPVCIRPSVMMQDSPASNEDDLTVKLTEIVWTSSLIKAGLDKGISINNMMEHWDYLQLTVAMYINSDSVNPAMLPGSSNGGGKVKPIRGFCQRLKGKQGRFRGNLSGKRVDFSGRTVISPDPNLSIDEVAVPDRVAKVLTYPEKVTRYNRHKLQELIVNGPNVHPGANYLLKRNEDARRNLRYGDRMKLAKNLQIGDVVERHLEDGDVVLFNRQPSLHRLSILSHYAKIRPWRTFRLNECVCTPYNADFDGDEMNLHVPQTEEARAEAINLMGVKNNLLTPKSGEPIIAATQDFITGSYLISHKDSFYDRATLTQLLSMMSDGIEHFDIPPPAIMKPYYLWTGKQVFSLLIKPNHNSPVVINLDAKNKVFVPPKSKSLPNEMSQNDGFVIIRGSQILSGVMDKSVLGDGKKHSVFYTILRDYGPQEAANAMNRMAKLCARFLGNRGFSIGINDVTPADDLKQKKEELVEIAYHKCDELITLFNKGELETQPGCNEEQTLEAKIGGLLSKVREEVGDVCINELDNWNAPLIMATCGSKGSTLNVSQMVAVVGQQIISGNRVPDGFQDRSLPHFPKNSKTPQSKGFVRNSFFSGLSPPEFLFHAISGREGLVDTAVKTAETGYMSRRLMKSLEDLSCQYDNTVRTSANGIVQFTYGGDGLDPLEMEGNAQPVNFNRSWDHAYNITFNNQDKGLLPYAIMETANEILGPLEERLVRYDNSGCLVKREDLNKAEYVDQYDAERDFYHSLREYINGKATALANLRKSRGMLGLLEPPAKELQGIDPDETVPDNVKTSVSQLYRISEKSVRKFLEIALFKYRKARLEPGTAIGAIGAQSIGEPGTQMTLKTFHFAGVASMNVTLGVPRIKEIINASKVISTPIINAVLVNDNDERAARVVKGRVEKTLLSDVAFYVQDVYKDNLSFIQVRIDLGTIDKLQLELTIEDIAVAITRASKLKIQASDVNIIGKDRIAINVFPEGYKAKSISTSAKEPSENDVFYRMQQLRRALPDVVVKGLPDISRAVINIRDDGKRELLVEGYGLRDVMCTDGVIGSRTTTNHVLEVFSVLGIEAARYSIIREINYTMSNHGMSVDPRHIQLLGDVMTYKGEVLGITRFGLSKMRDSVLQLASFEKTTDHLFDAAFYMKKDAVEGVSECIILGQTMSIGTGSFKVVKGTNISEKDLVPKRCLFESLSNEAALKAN

[4] = target: T4, subunit ABC27 (S. cerevisiae, UniProt P20434 1-215)
T4 sequence (looked up): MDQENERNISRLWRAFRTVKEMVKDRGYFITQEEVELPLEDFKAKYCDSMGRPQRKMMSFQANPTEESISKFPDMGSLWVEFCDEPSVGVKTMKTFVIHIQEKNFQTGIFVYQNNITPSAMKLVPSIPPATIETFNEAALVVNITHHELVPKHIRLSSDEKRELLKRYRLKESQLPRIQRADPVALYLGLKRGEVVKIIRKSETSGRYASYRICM

binding result [1]: binds
B1: C53-C37 heterodimer (complex, S. cerevisiae)
chain 1: T2 sequence (looked up)
chain 2: MSIDNKLFVTEEDEEDRTQDRADVEDESNDIDMIADENGTNSAIANEQEEKSEEVKAEDDTGEEEEDDPVIEEFPLKISGEEESLHVFQYANRPRLVGRKPAEHPFISAARYKPKSHLWEIDIPLDEQAFYNKDKAESEWNGVNVQTLKGVGVENNGQYAAFVKDMQVYLVPIERVAQLKPFFKYIDDANVTRKQEDARRNPNPSSQRAQVVTMSVKSVNDPSQNRLTGSLLAHKVADEEANIELTWAEGTFEQFKDTIVKEAEDKTLVALEKQEDYIDNLV

binding result [1]: binds | binding result [2]: binds
B2: Pol III subunit C37 (natural protein, S. cerevisiae, UniProt P36121 1-282, looked up)
chain: B1 chain 2

binding result [3]: binds | binding result [4]: binds
B3: Pol III subunit C11 (natural protein, S. cerevisiae, UniProt Q04307 1-110, looked up)
chain: MLSFCPSCNNMLLITSGDSGVYTLACRSCPYEFPIEGIEIYDRKKLPRKEVDDVLGGGWDNVDQTKTQCPNYDTCGGESAYFFQLQIRSADEPMTTFYKCVNCGHRWKEN
